This experiment has as its target human TrkB on CHO cells (CHO-K1-hTrkB/pSRE-Luc) (human) (UniProt Q16620). The experiment is described as follows: cell-based or functional assay.

Sequence of human TrkB on CHO cells (CHO-K1-hTrkB/pSRE-Luc) (human) (Q16620 32-822): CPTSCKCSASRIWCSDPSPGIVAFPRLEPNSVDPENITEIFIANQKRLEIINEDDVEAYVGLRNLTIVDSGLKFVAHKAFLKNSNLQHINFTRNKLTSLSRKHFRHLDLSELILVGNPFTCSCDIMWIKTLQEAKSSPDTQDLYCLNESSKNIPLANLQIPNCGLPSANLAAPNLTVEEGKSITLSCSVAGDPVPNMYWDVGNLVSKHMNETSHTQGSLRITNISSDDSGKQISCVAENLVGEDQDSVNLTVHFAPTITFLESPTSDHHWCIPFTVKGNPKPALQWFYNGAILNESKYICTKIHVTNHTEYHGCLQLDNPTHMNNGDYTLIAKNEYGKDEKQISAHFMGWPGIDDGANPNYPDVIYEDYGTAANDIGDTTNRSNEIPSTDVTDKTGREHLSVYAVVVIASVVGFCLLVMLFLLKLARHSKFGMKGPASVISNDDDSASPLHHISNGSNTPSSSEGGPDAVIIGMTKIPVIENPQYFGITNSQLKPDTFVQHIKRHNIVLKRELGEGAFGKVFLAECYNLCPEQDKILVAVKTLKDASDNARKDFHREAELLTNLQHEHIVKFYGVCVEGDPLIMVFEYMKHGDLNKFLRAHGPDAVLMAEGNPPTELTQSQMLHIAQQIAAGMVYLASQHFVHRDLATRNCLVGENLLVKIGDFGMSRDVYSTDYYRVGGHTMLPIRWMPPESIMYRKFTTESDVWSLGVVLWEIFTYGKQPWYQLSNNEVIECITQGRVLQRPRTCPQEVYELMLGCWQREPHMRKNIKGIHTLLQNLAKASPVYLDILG

In the case of “complex of pre-pro(IgA)-BDNF(-RGR)_opsin(L)-(G3D)4-G3S_VH<TfR>8D3-CH1-His6, anti-transferrin receptor antibody light chain and not-fused pre-pro(IgA)-BDNF(-RGR; R81N)-His6 (from UniProt P23560 1-244)”, the relative BDNF activity in TrkB luciferase assay, EC50 [%] was 80%.
In the case of “complex of pre-pro(IgA)-BDNF(-RGR; R81N)_opsin(L)-(G3D)4-G3S_VH<TfR>8D3-CH1-His6, anti-transferrin receptor antibody light chain and not-fused pre-pro(IgA)-BDNF(-RGR; R81N)-His6 (from UniProt P23560 1-244)”, the relative BDNF activity in TrkB luciferase assay, EC50 [%] was determined as 110%.
With “pre-pro-BDNF(-RGR; K25N; T35N; Q79T)-T7-His6 (ligand)”, the BDNF activity in TrkBluciferase assay, EC50 [% or nM] is 2830%.
“pre-pro(IgA)-BDNF(-RGR)_opsin(L)-(G3D)4-G3S_VH<TfR>8D3-CH1-His6 with chimeric rat/human anti-transferrin receptor antibody light chain”: the relative BDNF activity in TrkB luciferase assay, EC50 [%] stood at 200%.
With “complex of pre-pro(IgA)-BDNF(-RGR)_opsin(L)-(G3D)4-G3S_VH<TfR>8D3-CH1-His6, anti-transferrin receptor antibody light chain and not-fused pre-pro(IgA)-BDNF(-RGR)-opsin(L)-T7-His6”, the relative BDNF activity in TrkB luciferase assay, EC50 [%] was determined as 60%.

For the origin of these results see patent US20190271021A1.
